{
  "source": "patent US20050287522A1",
  "key": {"[1]": {"biological_target": "tEGFR-ω fusion (extracellular and transmembrane regions of the EGF receptor fused to the ω fragment)", "sequence (P00722 other isoform, or with tags, fused parts or gaps)": "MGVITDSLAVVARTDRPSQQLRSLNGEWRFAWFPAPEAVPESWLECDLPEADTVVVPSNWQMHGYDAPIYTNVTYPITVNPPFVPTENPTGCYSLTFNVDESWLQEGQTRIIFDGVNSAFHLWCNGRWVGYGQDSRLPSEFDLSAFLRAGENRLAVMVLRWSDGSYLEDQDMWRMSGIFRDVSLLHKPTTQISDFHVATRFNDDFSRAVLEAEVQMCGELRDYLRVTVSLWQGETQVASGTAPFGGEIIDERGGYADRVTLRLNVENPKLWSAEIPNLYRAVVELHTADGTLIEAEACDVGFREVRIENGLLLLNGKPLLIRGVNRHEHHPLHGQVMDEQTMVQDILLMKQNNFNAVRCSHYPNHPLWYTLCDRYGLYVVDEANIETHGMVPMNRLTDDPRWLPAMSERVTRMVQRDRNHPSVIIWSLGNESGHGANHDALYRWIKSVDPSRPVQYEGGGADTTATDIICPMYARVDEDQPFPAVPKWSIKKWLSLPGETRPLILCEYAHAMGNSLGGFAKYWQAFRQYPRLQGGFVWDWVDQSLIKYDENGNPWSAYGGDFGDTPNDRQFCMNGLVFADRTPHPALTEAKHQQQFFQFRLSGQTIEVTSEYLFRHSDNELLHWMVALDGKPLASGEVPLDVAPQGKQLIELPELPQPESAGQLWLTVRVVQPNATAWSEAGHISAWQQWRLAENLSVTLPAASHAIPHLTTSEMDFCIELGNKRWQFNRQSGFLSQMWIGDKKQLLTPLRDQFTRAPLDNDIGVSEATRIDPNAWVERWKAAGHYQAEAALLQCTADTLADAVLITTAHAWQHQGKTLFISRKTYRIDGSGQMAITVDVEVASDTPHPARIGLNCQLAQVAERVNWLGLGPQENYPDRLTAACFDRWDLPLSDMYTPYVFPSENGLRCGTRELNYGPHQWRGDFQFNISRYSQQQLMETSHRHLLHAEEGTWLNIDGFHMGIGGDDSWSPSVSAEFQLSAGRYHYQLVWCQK", "assay": "cell-based or functional assay"}, "[2]": {"biological_target": "ω-NLS (ω fragment fused to a triplet SV40 nuclear localization signal)", "sequence (P00722 other isoform, or with tags, fused parts or gaps)": "as above", "assay": "cell-based or functional assay"}},
  "data": [
    {"substance": "C1A domain of PKCγ fused to GFP-α (wild type α peptide) (from UniProt P42212 1-238)", "values": [
      {"measurement": "increase in β-galactosidase activity on PMA (NIH 3T3 cells, membrane translocation assay)", "setting": "[1]", "result": "< 10", "unit": "% increase"}
    ]},
    {"substance": "C1A domain of PKCγ fused to the GFP-α H31R point mutant (from UniProt P42212 1-238)", "values": [
      {"measurement": "fold induction of β-galactosidase activity on PMA (NIH 3T3 cells, membrane translocation assay) (fold induction)", "setting": "[1]", "result": 7}
    ]},
    {"substance": "NES-GFP-α-NLS protein (MEK nuclear export signal, GFP, α peptide, triplet SV40 NLS) (from UniProt P42212 1-238)", "values": [
      {"measurement": "β-galactosidase activity after leptomycin B for 2 hours (gain of signal assay, luminescent substrate) (fold increase)", "setting": "[2]", "result": 3.5},
      {"measurement": "β-galactosidase activity after leptomycin B (loss of signal assay) (fold decrease)", "setting": "[1]", "result": 5}
    ]},
    {"substance": "PH domain of AKT fused to the GFP-α chimera (from UniProt P42212 1-238)", "values": [
      {"measurement": "increase in β-galactosidase activity on PDGF, luminescent assay in 3T3 cells", "setting": "[1]", "result": 5, "unit": "fold"},
      {"measurement": "increase in β-galactosidase activity on insulin, luminescent assay in 3T3 cells", "setting": "[1]", "result": 2.5, "unit": "fold"},
      {"measurement": "increase in β-galactosidase activity on osmotic shock (sorbitol), luminescent assay in 3T3 cells", "setting": "[1]", "result": 8, "unit": "fold"}
    ]},
    {"substance": "glucocorticoid receptor fused to the amino-terminus of the GFP-α fusion (from UniProt P42212 1-238)", "values": [
      {"measurement": "change in β-galactosidase activity with dexamethasone, DDAO substrate, flow cytometry of live cells", "setting": "[2]", "result": "5 to 10", "unit": "fold change"},
      {"measurement": "difference in β-galactosidase activity at 30 min of dexamethasone (gain of signal assay)", "setting": "[2]", "result": 100, "unit": "%"},
      {"measurement": "β-galactosidase activity after 1 µM dexamethasone for 3 hours (gain of signal assay) (fold induction)", "setting": "[2]", "result": 3.5},
      {"measurement": "change in β-galactosidase activity with dexamethasone, DDAO substrate, flow cytometry of live cells", "setting": "[1]", "result": "5 to 10", "unit": "fold change"},
      {"measurement": "difference in β-galactosidase activity at 30 min of dexamethasone (loss of signal assay)", "setting": "[1]", "result": 25, "unit": "%"},
      {"measurement": "β-galactosidase activity after 1 µM dexamethasone for 3 hours (loss of signal assay)", "setting": "[1]", "result": 5, "unit": "fold"}
    ]}
  ]
}
